The source of these data is the supplement of paper PMC9112550, “Optimization of the antimicrobial peptide Bac7 by deep mutational scanning” (BMC Biology, 2022).
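Further: peptides expressed intracellularly from a pBAD plasmid library in pooled LB shake-flask culture, induced with 0.3% L-arabinose, DNA abundance read by NGS, three biological replicates, DESeq2 with apeglm shrinkage.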

The subject of this data set is Escherichia coli TOP10. As to the kind of experiment: shrunken log2 fold change of peptide-encoding DNA abundance (4.5 h post-induction vs induction); higher = less antimicrobial activity (less host growth inhibition). As to conditions: time post-induction: 4.5 h; library: site-saturation at positions 5, 18, 19, 20.
For the sequence RRIRYRPPRLPRPRPRPLILPRP, the “shrunken log2 fold change” value was -0.767.
With RRIRMRPPRLPRPRPRPIVLPRP the figure was -0.0572; with RRIRPRPPRLPRPRPRPIYSPRP, -0.225; with RRIRDRPPRLPRPRPRPLNLPRP, -0.324.
The figure for RRIRDRPPRLPRPRPRPLGMPRP is 0.111; for RRIRPRPPRLPRPRPRPMYEPRP it is -0.527.
With RRIRNRPPRLPRPRPRPKGPPRP the figure was 0.0947; with RRIRCRPPRLPRPRPRPVPYPRP, -0.533.
RRIRLRPPRLPRPRPRPRSKPRP: the “shrunken log2 fold change” value is -0.111.
Consider RRIRHRPPRLPRPRPRPPTTPRP, for which the “shrunken log2 fold change” value is -0.175.
With RRIRARPPRLPRPRPRPIAEPRP the figure was 0.42.
With RRIRSRPPRLPRPRPRPPMMPRP the figure was 0.0697; with RRIRKRPPRLPRPRPRPRCQPRP, 0.099; with RRIRPRPPRLPRPRPRPNCTPRP, -0.0727.
With RRIRSRPPRLPRPRPRPDPGPRP the figure was 0.246.
RRIRVRPPRLPRPRPRPQFWPRP: the “shrunken log2 fold change” value is -0.178.
With RRIRYRPPRLPRPRPRPFICPRP the figure was -0.579.
In the case of RRIRNRPPRLPRPRPRPGSMPRP, the “shrunken log2 fold change” value was -0.225.
With RRIRLRPPRLPRPRPRPVHEPRP the figure was 0.0233.
For RRIRQRPPRLPRPRPRPGKKPRP, the “shrunken log2 fold change” value was found to be 0.0943.
The figure for RRIRIRPPRLPRPRPRPCLCPRP is 2.05; for RRIRQRPPRLPRPRPRPEFSPRP it is 0.362; for RRIRRRPPRLPRPRPRPTDMPRP it is -0.0645.
The figure for RRIRMRPPRLPRPRPRPYDMPRP is -0.0585; for RRIRNRPPRLPRPRPRPDQIPRP it is -0.0823; for RRIRCRPPRLPRPRPRPYQNPRP it is -1.1.
The figure for RRIRTRPPRLPRPRPRPAQNPRP is 0.323; for RRIRYRPPRLPRPRPRPKIMPRP it is -0.131; for RRIRKRPPRLPRPRPRPCTEPRP it is 0.0485.
As to RRIRKRPPRLPRPRPRPNAMPRP, the “shrunken log2 fold change” value is -0.0822.
The figure for RRIRWRPPRLPRPRPRPTGVPRP is 0.334; for RRIRSRPPRLPRPRPRPQDNPRP it is -0.362.
With RRIRLRPPRLPRPRPRPPAGPRP the figure was 0.607; with RRIRFRPPRLPRPRPRPGYKPRP, -0.438; with RRIRDRPPRLPRPRPRPKSKPRP, -0.105.
The figure for RRIRGRPPRLPRPRPRPQKYPRP is -0.0606; for RRIRARPPRLPRPRPRPGAAPRP it is 1.1; for RRIRWRPPRLPRPRPRPTNWPRP it is 0.206.
On to RRIRDRPPRLPRPRPRPALEPRP, for which the “shrunken log2 fold change” value worked out at 0.659.
With RRIRHRPPRLPRPRPRPIFSPRP the figure was -0.176; with RRIRTRPPRLPRPRPRPVQRPRP, 0.132; with RRIRLRPPRLPRPRPRPEASPRP, 0.133.
In the case of RRIRCRPPRLPRPRPRPWAIPRP, the “shrunken log2 fold change” value was -0.0169.
With RRIRLRPPRLPRPRPRPFKFPRP the figure was -0.202; with RRIRGRPPRLPRPRPRPRYKPRP, 0.247.
The figure for RRIRARPPRLPRPRPRPTLTPRP is 1.08.
Take RRIRIRPPRLPRPRPRPPDMPRP: the “shrunken log2 fold change” value was -0.16.
The figure for RRIRVRPPRLPRPRPRPYPLPRP is -0.478; for RRIRSRPPRLPRPRPRPEQCPRP it is -0.00373; for RRIRGRPPRLPRPRPRPHSMPRP it is 0.0488.
With RRIRFRPPRLPRPRPRPPNAPRP the figure was 0.353; with RRIRQRPPRLPRPRPRPCQQPRP, -0.0108.
With RRIRKRPPRLPRPRPRPTDEPRP the figure was 0.819; with RRIRMRPPRLPRPRPRPSTCPRP, -0.0128; with RRIRLRPPRLPRPRPRPTMVPRP, -0.0972.
With RRIRSRPPRLPRPRPRPTLWPRP, the “shrunken log2 fold change” value amounted to 0.448.
With RRIRKRPPRLPRPRPRPARFPRP the figure was 0.396; with RRIRWRPPRLPRPRPRPPAFPRP, 0.204; with RRIRVRPPRLPRPRPRPPSIPRP, 0.231.
Take RRIRYRPPRLPRPRPRPFYNPRP: the “shrunken log2 fold change” value was -1.15.
The figure for RRIRWRPPRLPRPRPRPINAPRP is 0.252; for RRIRCRPPRLPRPRPRPNNAPRP it is -0.799.
With RRIRERPPRLPRPRPRPVPAPRP the figure was 0.224; with RRIRIRPPRLPRPRPRPEKTPRP, -0.0512; with RRIRWRPPRLPRPRPRPYKKPRP, -0.225.
The figure for RRIRPRPPRLPRPRPRPKGMPRP is 0.129.
Consider RRIRNRPPRLPRPRPRPKSVPRP, for which the “shrunken log2 fold change” value worked out at 0.0186.
With RRIRWRPPRLPRPRPRPMNVPRP the figure was 0.0542; with RRIRSRPPRLPRPRPRPQINPRP, -0.46.
For the sequence RRIRGRPPRLPRPRPRPSIGPRP, the “shrunken log2 fold change” value was 0.0763.
The figure for RRIRCRPPRLPRPRPRPPINPRP is -0.319.
The figure for RRIRCRPPRLPRPRPRPEVGPRP is 0.555.
The figure for RRIRPRPPRLPRPRPRPKLEPRP is 0.121; for RRIRHRPPRLPRPRPRPDDWPRP it is -0.0115; for RRIRLRPPRLPRPRPRPFHAPRP it is -0.219.
In the case of RRIRFRPPRLPRPRPRPFNGPRP, the “shrunken log2 fold change” value is -0.163.
The figure for RRIRGRPPRLPRPRPRPSQNPRP is 0.229; for RRIRYRPPRLPRPRPRPACWPRP it is 0.47.
Consider RRIRLRPPRLPRPRPRPHHFPRP, for which the “shrunken log2 fold change” value was -0.128.
With RRIRARPPRLPRPRPRPLKNPRP the figure was -0.127.
The figure for RRIRHRPPRLPRPRPRPSCLPRP is -0.4.
With RRIRFRPPRLPRPRPRPFRPPRP the figure was -0.466; with RRIRERPPRLPRPRPRPTCCPRP, -0.0839.
For the sequence RRIRNRPPRLPRPRPRPCCQPRP, the “shrunken log2 fold change” value was -0.6.
The figure for RRIRQRPPRLPRPRPRPEGSPRP is -0.00794.
With RRIRFRPPRLPRPRPRPFDEPRP the figure was -0.983; with RRIRTRPPRLPRPRPRPQHFPRP, -0.0212.
With RRIRGRPPRLPRPRPRPDDAPRP the figure was 0.314.
Regarding RRIRIRPPRLPRPRPRPAMIPRP, the “shrunken log2 fold change” value came to 0.0156.
With RRIRERPPRLPRPRPRPQMTPRP the figure was -0.312; with RRIRARPPRLPRPRPRPKDTPRP, 0.293.
With RRIRYRPPRLPRPRPRPRYWPRP the figure was -0.317.
The figure for RRIRPRPPRLPRPRPRPHPCPRP is -0.105; for RRIRVRPPRLPRPRPRPYCQPRP it is -1.64.
Turning to RRIRSRPPRLPRPRPRPGMHPRP, the “shrunken log2 fold change” value is -0.0823.
The figure for RRIRTRPPRLPRPRPRPCKYPRP is -0.41; for RRIRFRPPRLPRPRPRPKFGPRP it is 0.039; for RRIRARPPRLPRPRPRPMAIPRP it is -0.0621.
With RRIRARPPRLPRPRPRPMFCPRP the figure was 0.211; with RRIRFRPPRLPRPRPRPHKHPRP, -0.579; with RRIRLRPPRLPRPRPRPIDCPRP, -0.00194.
Consider RRIRARPPRLPRPRPRPYYEPRP, for which the “shrunken log2 fold change” value was -1.02.
The figure for RRIRMRPPRLPRPRPRPFECPRP is 0.0161; for RRIRHRPPRLPRPRPRPYKHPRP it is -0.512; for RRIRTRPPRLPRPRPRPYQMPRP it is 0.0528.
With RRIRARPPRLPRPRPRPHRYPRP the figure was -0.147; with RRIRMRPPRLPRPRPRPWEIPRP, -0.00146.
With RRIRRRPPRLPRPRPRPWATPRP the figure was 0.0893.
Take RRIRERPPRLPRPRPRPFIWPRP: the “shrunken log2 fold change” value came to 0.0296.
RRIRKRPPRLPRPRPRPKSRPRP: the “shrunken log2 fold change” value worked out at 0.296.
With RRIRSRPPRLPRPRPRPCTYPRP the figure was -0.454.
With RRIRLRPPRLPRPRPRPLKCPRP the figure was -0.0489.
With RRIRQRPPRLPRPRPRPYKVPRP the figure was 0.000796; with RRIRLRPPRLPRPRPRPMYYPRP, -0.0423.
Consider RRIRMRPPRLPRPRPRPMVGPRP, for which the “shrunken log2 fold change” value is -0.06.
The figure for RRIRPRPPRLPRPRPRPEILPRP is 0.0928; for RRIRRRPPRLPRPRPRPLNHPRP it is -0.0852.
The figure for RRIRNRPPRLPRPRPRPRLWPRP is 0.0283; for RRIRPRPPRLPRPRPRPQAMPRP it is 0.132; for RRIRVRPPRLPRPRPRPRCYPRP it is -0.31.
With RRIRHRPPRLPRPRPRPEGFPRP the figure was -0.078; with RRIRNRPPRLPRPRPRPGCNPRP, -0.642; with RRIRMRPPRLPRPRPRPWMIPRP, -0.136.
Take RRIRKRPPRLPRPRPRPNKTPRP: the “shrunken log2 fold change” value is -0.227.
RRIRDRPPRLPRPRPRPFDAPRP: the “shrunken log2 fold change” value is -0.13.
